“And” between values parts separate entries of the source, which are not always exact repeats. Equal values may be shown once.
B1: IgG1-ctrl (antibody)
heavy: not shown
light: EIVLTQSPGTLSLSPGERATFSCRSSHSIRSRRVAWYQHKPGQAPRLVIHGVSNRASGISDRFSGSGSGTDFTLTITRVEPEDFALYYCQVYGASSYTFGQGTKLERKRTVAAPSVFIFPPSDEQLKSGTASVVCLLNNFYPREAKVQWKVDNALQSGNSQESVTEQDSKDSTYSLSSTLTLSKADYEKHKVYACEVTHQGLSSPVTKSFNRGEC
notes: also called IgG1-b12 with wild-type Fc region
B2: IgG1-PD1 (antibody)
heavy: QVQLVESGGGLVQPGTSLRLSCSVSGFSLYSYNMGWVRQAPGKGLEYIGIISGGTIGHYASWAKGRFTISRDTSKTTLYLQMNSLTTEDTATYFCARAFYDDYDYNVWGPGTLVTVSSASTKGPSVFPLAPSSKSTSGGTAALGCLVKDYFPEPVTVSWNSGALTSGVHTFPAVLQSSGLYSLSSVVTVPSSSLGTQTYICNVNHKPSNTKVDKRVEPKSCDKTHTCPPCPAPEFERGPSVFLFPPKPKDTLMISRTPEVTCVVVDVSHEDPEVKFNWYVDGVEVHNAKTKPREEQYNSTYRVVSVLTVLHQDWLNGKEYKCKVSNKALPAPIEKTISKAKGQPREPQVYTLPPSREEMTKNQVSLTCLVKGFYPSDIAVEWESNGQPENNYKTTPPVLDSDGSFFLYSKLTVDKSRWQQGNVFSCSVMHEALHNHYTQKSLSLSPG
light: AIQLTQSPSSLSASVGGTVTITCQSSQSVYGNNQLSWYQQKPGQPPKLLIYQASKLETGVPSRFRGSGSGTQFTLTISSLQSEDFATYYCAGGYSSSSDTTFGGGTEVVVKRTVAAPSVFIFPPSDEQLKSGTASVVCLLNNFYPREAKVQWKVDNALQSGNSQESVTEQDSKDSTYSLSSTLTLSKADYEKHKVYACEVTHQGLSSPVTKSFNRGEC

Columns and labels:
[1] = biological target: T1, human FcγRIa transiently expressed on CHO-S cells (human, UniProt P12314 16-374); test: flow cytometry on CHO-S cells transiently expressing human FcγRIa, PE-conjugated goat anti-human IgG F(ab')2, % PE+ cells
T1 construct: whole, on cells; also called cell surface expressed FcγRIa
Description: Cells were centrifuged, supernatant was removed, and cells (30,000 cells in 50 μL) were incubated with 50 μL of the antibody dilutions for 30 min at 4° C. Cells were washed twice with GMB FACS buffer and incubated with 50 μL secondary antibody (PE-conjugated goat-anti-human IgG F(ab′)2; 1:500) for 30 min at 4° C., protected from light. Cells were washed twice with GMB FACS buffer and resuspended in GMB FACS buffer supplemented with 2 mM EDTA and DAPI viability marker (1:5,000). Antibody binding to viable cells was analyzed by flow cytometry on an Intellicyt iQue PLUS Screener (Intellicyt Corporation) using FlowJo software by gating on PE-positive, DAPI-negative cells. Binding curves were analyzed using non-linear regression analysis (four-parameter dose-response curve fits) in GraphPad Prism.

[2] = biological target: human PD-1 expressed on reporter Jurkat T cells (PD-1 Effector Cells) (human, UniProt Q15116 25-288); test: cell-based or functional assay
Chain of human PD-1 expressed on reporter Jurkat T cells (PD-1 Effector Cells) (Q15116 25-288): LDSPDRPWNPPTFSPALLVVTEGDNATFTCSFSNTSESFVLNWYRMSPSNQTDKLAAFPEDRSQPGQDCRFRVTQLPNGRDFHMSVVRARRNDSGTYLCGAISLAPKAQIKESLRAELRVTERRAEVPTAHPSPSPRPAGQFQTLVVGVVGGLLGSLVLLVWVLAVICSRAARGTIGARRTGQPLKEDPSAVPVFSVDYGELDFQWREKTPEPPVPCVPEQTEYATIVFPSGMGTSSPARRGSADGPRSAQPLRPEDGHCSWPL

T1 sequence (P12314 16-374): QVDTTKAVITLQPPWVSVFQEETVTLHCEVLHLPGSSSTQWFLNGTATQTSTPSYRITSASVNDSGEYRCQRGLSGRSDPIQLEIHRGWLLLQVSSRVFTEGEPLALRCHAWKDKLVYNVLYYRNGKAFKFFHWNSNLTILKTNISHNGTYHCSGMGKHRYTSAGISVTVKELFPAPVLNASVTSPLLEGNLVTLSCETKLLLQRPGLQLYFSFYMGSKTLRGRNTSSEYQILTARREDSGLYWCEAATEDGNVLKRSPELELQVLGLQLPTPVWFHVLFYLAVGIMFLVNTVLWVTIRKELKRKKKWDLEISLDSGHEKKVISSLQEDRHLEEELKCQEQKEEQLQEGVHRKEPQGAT

Row | Binder | EC50 (read off the curve) [1] | EC50 of PD-1/PD-L1 checkpoint blockade (luminescence, reporter assay) [2]
1 | B1 | ~0.01 µg/mL | –
2 | B2 | – | 0.165 µg/mL and 1.12 nM
